This note sets out measurements from PMC2744598.

The target of experiment [1] is GST-Ede1 UBA (yeast) (UniProt P34216). The experiment is described as follows: SPR. A general note: Surface plasmon resonance follows binding to a sensor surface in real time, without labels.
Experiment [2] has as its target GST-His/GST-Ede1 heterodimer of the functionally monomeric mixture (not stated | yeast) (UniProt P34216). The experiment is described as follows: SPR.
For experiment [3], the target named is fluorescein-labeled hHR23A-UBA1 (human). In words: fluorescence polarisation.
In experiment [4] the target is Dsk2 UBA, fluorescent free domain (yeast) (UniProt P48510). In words: fluorescence polarisation. Background: Fluorescence polarisation rises when a labelled molecule tumbles more slowly, as on binding a larger partner.
Sequence of Dsk2 UBA, fluorescent free domain (yeast) (P48510 327-371): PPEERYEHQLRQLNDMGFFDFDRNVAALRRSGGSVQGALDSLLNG
Experiment [5] has as its target Ede1_rhodamine (yeast) (UniProt P34216). In words: fluorescence polarisation.
The target in experiment [6] is Ddi1 UBA, fluorescent free domain (yeast) (UniProt P40087). In words: fluorescence polarisation.
Sequence of Ddi1 UBA, fluorescent free domain (yeast) (P40087 389-428): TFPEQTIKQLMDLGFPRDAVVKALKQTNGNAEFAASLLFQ
Experiment [7] has as its target GST-DRM2 UBA1 (Arabidopsis). The experiment is described as follows: SPR.
For experiment [8], the target named is GST-hHR23A UBA1 (human). The experiment is described as follows: SPR.

Sequence of Ede1_rhodamine (yeast) (P34216 1338-1380): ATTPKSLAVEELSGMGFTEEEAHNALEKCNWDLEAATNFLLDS
Sequence of GST-Ede1 UBA (yeast) (P34216 1338-1380): as above

Take “K48-linked tetraubiquitin (from UniProt P0CG48 1-76)”: the dissociation constant (Kd) is 25 µM in experiment [1]; 44 µM in experiment [2]; 9 µM in experiment [3]; 1.4 µM in experiment [4]; 31 µM in experiment [5]; 50 µM in experiment [6].
In the case of “K48-linked diubiquitin (from UniProt P0CG48 1-76)”, the Kd is 110 µM in experiment [1], 140 µM in experiment [7], 36 µM in experiment [8] and 86 µM in experiment [5].
As to “K63-linked tetraubiquitin (from UniProt P0CG48 1-76)”, the Kd in experiment [1] turned out to be 6 µM; in experiment [2], 23 µM; in experiment [8], 4.7 µM; in experiment [3], 30 µM; in experiment [4], 2.2 µM; in experiment [5], 54 µM. In addition, in experiment [6], the Kd is 92 µM.
As to “K63-linked diubiquitin (from UniProt P0CG48 1-76)”, the Kd in experiment [1] was found to be 48 µM; in experiment [7], 89 µM; in experiment [8] it was 26 µM; in experiment [5], 120 µM.

In general, Kd refers to the concentration at which binding is half-saturated.
